This is an account of results in CN108101990A (UNIV ZHEJIANG, dated 2018).

The experiment concerns the target T1, 人Tim-3胞外区 (human, UniProt Q8TDQ0 22-202).
T1 construct: extracellular domain; also called T细胞免疫球蛋白黏蛋白分子3
T1 sequence (looked up): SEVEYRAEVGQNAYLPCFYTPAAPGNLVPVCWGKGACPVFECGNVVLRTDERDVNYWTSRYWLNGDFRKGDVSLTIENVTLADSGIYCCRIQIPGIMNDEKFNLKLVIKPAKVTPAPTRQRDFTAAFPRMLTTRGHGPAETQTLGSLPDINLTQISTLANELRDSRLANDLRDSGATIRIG
As to the kind of experiment: hybridoma screening, indirect ELISA. (In an ELISA, binding on a coated surface is turned into a signal by an enzyme label.)

B1: 抗人Tim-3单克隆抗体CDT1 (antibody, V domains shown)
VH: VKLQESGGGLVQPGGSLRLSCATSGFTFTDYYMSWVRQPPGKALEWLGFIRNKANGYTTEYSASVKGRFTISRDYSQSILYLQMNTLTAEDSATYFCARDLDYWGQGTTVTVSS
VL: NIMMTQSPSSLAVSAGEKVTMSCKSSQSVLYSSNQKNFLAWYQQKPGQSPELLIYWASTRVSGVPDRFTGSGSGTDFTLTISNVQAEDLAVYYCHQYLSLRTFGGGTKLEI
notes: also called CDT1抗体
Consider B1, for which the binding result was “binds”.
